Literature values, collected in patent publication US8865021B2, “Compositions of lipids and cationic peptides” (Camurus AB, priority 2003, dated 2014).
Residues, ends and D or L forms follow the SMILES beside them. No end group written: not given here.

B1: IL-26 (protein, UniProt Q9NPH9 22-171, looked up)
Interleukin-26: KHKQSSFTKSCYPRGTLSQAVDALYIKAAWLKATIPEDRIKNIRLLKKKTKKQFMKNCQFQEQLLSFFMEDVFGQLQLQGCKKIRFVEDFHSLRQKLSHCISCASSAREMKSITRMKRIFYRIGNKGIYKAISELDILLSWIKKLLESSQ
B2: IL-24 (protein, UniProt Q13007 52-206, looked up)
Interleukin-24: QEFHFGPCQVKGVVPQKLWEAFWAVKDTMQAQDNITSARLLQQEVLQNVSDAESCYLVHTLLEFYLKTVFKNYHNRTVEVRTLKSFSTLANNFVLIVSQLQPSQENEMFSIRDSAHRRFLLFRRAFKQLDVEAALTKALGEVDILLTWMQKFYKL
notes: Melanoma differentiation associated protein 7
B3: Interferon-gamma (protein, UniProt P01579 24-161, looked up)
Interferon gamma: QDPYVKEAENLKKYFNAGHSDVADNGTLFLGILKNWKEESDRKIMQSQIVSFYFKLFKNFKDDQSIQKSVETIKEDMNVKFFNSNKKKRDDFEKLTNYSVTDLNVQRKAIHELIQVMAELSPAAKTGKRKRSQMLFRG
B4: human Chorionic Gonadotropin-beta (protein, UniProt P0DN86 21-165, looked up)
Choriogonadotropin subunit …: SKEPLRPRCRPINATLAVEKEGCPVCITVNTTICAGYCPTMTRVLQGVLPALPQVVCNYRDVRFESIRLPGCPRGVNPVVSYAVALSCQCALCRRSTTDCGGPKDHPLTCDDPRFQDSSSSKAPPPSLPSPSRLPGPSDTPILPQ
notes: Infertility
B5: Interferon-alpha 1/13 (protein, UniProt P01562 24-189, looked up)
Interferon alpha-1/13: CDLPETHSLDNRRTLMLLAQMSRISPSSCLMDRHDFGFPQEEFDGNQFQKAPAISVLHELIQQIFNLFTTKDSSAAWDEDLLDKFCTELYQQLNDLEACVMQEERVGETPLMNADSILAVKKYFRRITLYLTEKKYSPCAWEVVRAEIMRSLSLSTNLQERLRRKE
B6: Filgrastim (protein, UniProt P09919 31-207, looked up)
Granulocyte …: TPLGPASSLPQSFLLKCLEQVRKIQGDGAALQEKLVSECATYKLCHPEELVLLGHSLGIPWAPLSSCPSQALQLAGCLSQLHSGLFLYQGLLQALEGISPELGPTLDTLQLDVADFATTIWQQMEELGMAPALQPTQGAMPAFASAFQRRAGGVLVASHLQSFLEVSYRVLRHLAQP
modifications: N-terminal methionine, non-glycosylated
notes: neutropenia
B7: IL-11 (protein, UniProt P20809 22-199, looked up)
Interleukin-11: PGPPPGPPRVSPDPRAELDSTVLLTRSLLADTRQLAAQLRDKFPADGDHNLDSLPTLAMSAGALGALQLPGVLTRLRADLLSYLRHVQWLRRAGGSSLKTLEPELGTLQARLDRLLRRLQLLMSRLALPQPPPDPPAPPLAPPSSAWGGIRAAHAILGGLHLTLDWAVRGLLLLKTRL
B8: IL-19 (protein, UniProt Q9UHD0 25-177, looked up)
Interleukin-19: LRRCLISTDMHHIEESFQEIKRAIQAKDTFPNVTILSTLETLQIIKPLDVCCVTKNLLAFYVDRVFKDHQEPNPKILRKISSIANSFLYMQKTLRQCQEQRQCHCRQEATNATRVIHDNYDQLEVHAAAIKSLGELDVFLAWINKNHEVMFSA
notes: Melanoma differentiation associated protein-like protein

Conditions: Table 2
In the case of `CC[C@H](C)[C@@H]1NC(=O)[C@H](Cc2ccc(O)cc2)NC(=O)[C@@H](N)CSSC[C@@H](C(=O)N2CCC[C@H]2C(=O)N[C@@H](CC(C)C)C(=O)NCC(N)=O)NC(=O)[C@H](CC(N)=O)NC(=O)[C@H](CCC(N)=O)NC1=O` [Oxytocin, reference compound], the “Isoelectric pH” value is listed as 5.51 pH.
For `CC(C)[C@@H]1NC(=O)[C@H](CCCNC(=N)N)NC(=O)[C@H](Cc2ccccc2)NC(=O)[C@@H](NC(=O)[C@H](Cc2c[nH]c3ccccc23)NC(=O)[C@H](CCCNC(=N)N)NC(=O)[C@@H](N)CCCNC(=N)N)CSSC[C@@H](C(=O)N[C@@H](CCCNC(=N)N)C(N)=O)NC(=O)[C@H](CCCCN)NC(=O)[C@H](CCCNC(=N)N)NC(=O)[C@H](Cc2ccc(O)cc2)NC(=O)[C@@H]2CSSC[C@H](NC1=O)C(=O)N[C@@H](Cc1ccc(O)cc1)C(=O)N[C@@H](CCCCN)C(=O)NCC(=O)N[C@@H](Cc1ccccc1)C(=O)N2` [Polyphemusin II] (HELM PEPTIDE1{R.R.W.C.F.R.V.C.Y.K.G.F.C.Y.R.K.C.R.[am]}$PEPTIDE1,PEPTIDE1,4:R3-17:R3|PEPTIDE1,PEPTIDE1,8:R3-13:R3$$$V2.0), the “Isoelectric pH” value is listed as 10.1 pH.
For `NC(=O)CC[C@@H]1NC(=O)[C@H](Cc2ccccc2)NC(=O)[C@H](Cc2ccc(O)cc2)NC(=O)[C@@H](N)CSSC[C@@H](C(=O)N2CCC[C@H]2C(=O)N[C@@H](CCCN=C(N)N)C(=O)NCC(N)=O)NC(=O)[C@H](CC(N)=O)NC1=O` [Vassopresin, reference compound], the “Isoelectric pH” value is given as 8.06 pH.
In the case of Alteplase, the “Isoelectric pH” value is given as 7.61 pH.
In the case of Becaplermin, the “Isoelectric pH” value is listed as 9.38 pH.
For “Calcitonin (salmon) [reference compound]”, the “Isoelectric pH” value is given as 8.86 pH.
For Follitropin-beta, the “Isoelectric pH” value is given as 5.91 pH.
In the case of GMCSF, the “Isoelectric pH” value is listed as 5.21 pH.
In the case of IL-1 beta, the “Isoelectric pH” value is given as 5.91 pH.
In the case of IL-1alpha, the “Isoelectric pH” value is listed as 5.3 pH.
For IL-4, the “Isoelectric pH” value is given as 9.26 pH.
In the case of IL-5, the “Isoelectric pH” value is listed as 7.02 pH.
In the case of IL-6, the “Isoelectric pH” value is listed as 6.21 pH.
In the case of IL-7, the “Isoelectric pH” value is listed as 8.72 pH.
For IL-8, the “Isoelectric pH” value is listed as 9.24 pH.
For IL-10, the “Isoelectric pH” value is listed as 7.63 pH.
For IL-13, the “Isoelectric pH” value is listed as 8.81 pH.
In the case of IL-15, the “Isoelectric pH” value is given as 4.52 pH.
For IL-17, the “Isoelectric pH” value is given as 8.62 pH.
For IL-18, the “Isoelectric pH” value is listed as 5.04 pH.
For “Indolicidin (ILPWKWPWWPWRR; ends and bridges not checked; UniProt P33046 131-143, looked up) [Indolicidin (e.g. bovine), antibacterial, antifungal, anticancer, antiviral, antiparasite]”, the “Isoelectric pH” value is listed as 12.01 pH.
In the case of Insulin α, the “Isoelectric pH” value is given as 3.79 pH.
In the case of Intercellular Adhesion Molecule 1, the “Isoelectric pH” value is listed as 9.51 pH.
For Interleukin-1 receptor antagonist, the “Isoelectric pH” value is listed as 8.51 pH.
For Lepirudin, the “Isoelectric pH” value is listed as 4.04 pH.
For Magainin I, the “Isoelectric pH” value is given as 10 pH.
For Magainin II, the “Isoelectric pH” value is given as 10 pH.
In the case of Mellitin, the “Isoelectric pH” value is given as 12.02 pH.
In the case of OspA, the “Isoelectric pH” value is listed as 6.72 pH.
In the case of Pneumadin, the “Isoelectric pH” value is listed as 4.36 pH.
For “Polyphemusin I (RRWCFRVCYRGFCYRKCR; ends and bridges not checked; cysteine pairing not given here; UniProt P14215 1-18, looked up) [antibacterial, antifungal, antiviral]”, the “Isoelectric pH” value is listed as 10.33 pH.
For Protegrin [Protegrin (e.g. swine)], the “Isoelectric pH” value is listed as 10.66 pH.
For “Secretin (HSDGTFTSELSRLRDSARLQRLLQGLV; ends and bridges not checked; UniProt P63298 33-59, looked up) [Secretin (e.g. swine), pancreatic assessment, 27 amino acids, reference compound]”, the “Isoelectric pH” value is listed as 9.45 pH.
For “Somatostatin [Somatostatin (& analogues), reference compound]”, the “Isoelectric pH” value is given as 9.58 pH.
For Somatotropin, the “Isoelectric pH” value is given as 5.27 pH.
In the case of “Tachyplesin I (KWCFRVCYRGICYRRCR; ends and bridges not checked; cysteine pairing not given here; UniProt P14213 24-40, looked up) [antibacterial, antiviral, 17 amino acids]”, the “Isoelectric pH” value is listed as 9.93 pH.
For Tuftsin, the “Isoelectric pH” value is listed as 11 pH.
In the case of B1, the “Isoelectric pH” value is given as 9.99 pH.
For B2, the “Isoelectric pH” value is given as 8.6 pH.
In the case of B3, the “Isoelectric pH” value is given as 9.54 pH.
For B4, the “Isoelectric pH” value is given as 8.65 pH.
For B5, the “Isoelectric pH” value is listed as 5.18 pH.
For B6, the “Isoelectric pH” value is given as 5.43 pH.
In the case of B7, the “Isoelectric pH” value is listed as 11.16 pH.
For B8, the “Isoelectric pH” value is listed as 7.8 pH.

Same assay, conditions: approximate values
In the case of `NC(=O)CC[C@@H]1NC(=O)[C@H](Cc2ccccc2)NC(=O)[C@H](Cc2ccc(O)cc2)NC(=O)[C@@H](N)CSSC[C@@H](C(=O)N2CCC[C@H]2C(=O)N[C@@H](CCCN=C(N)N)C(=O)NCC(N)=O)NC(=O)[C@H](CC(N)=O)NC1=O` [Vassopresin, reference compound], the isoelectric point is given as “around 8.0 pH”.
In the case of “Calcitonin (salmon) [reference compound]”, the isoelectric point is listed as ~8.9 pH.
For Insulin α, the isoelectric point is listed as “around 4 pH”.
In the case of Lepirudin, the isoelectric point is listed as “around 4 pH”.
In the case of octreotide [reference compound], the isoelectric point is given as “around 8.0 pH”.

Conditions: salmon vs human calcitonin
For “Calcitonin (salmon) [reference compound]”, the “potency by weight relative to the human hormone” value is given as “around 50 times”.
